Results published in US20220221455A1 (GlaxoSmithKline, published 2022).

Molecular target: T1, PE-PilA fusion protein LVL-735 (Haemophilus influenzae)
T1 construct: also called PE-PilA drug substance; PE-PilA DS
T1 chain: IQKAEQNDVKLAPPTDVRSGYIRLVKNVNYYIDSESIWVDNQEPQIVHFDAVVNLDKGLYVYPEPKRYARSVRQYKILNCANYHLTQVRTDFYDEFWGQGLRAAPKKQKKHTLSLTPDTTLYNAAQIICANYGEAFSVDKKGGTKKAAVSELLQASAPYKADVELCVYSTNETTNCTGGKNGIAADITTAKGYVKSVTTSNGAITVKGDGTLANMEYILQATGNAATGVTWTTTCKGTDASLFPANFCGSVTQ
Test: HDX-MS, antibody/antigen complex at molar ratio 1:1

B1: PEPilA/3 mAb (antibody, V domains shown)
VH: QGQLQQSGPELVKPGASVKMSCKASGYTFTDYVISWVKQRIGQGLEWIGEIHPGSGSIHYNEKFKGKATLTADKSSNTAYMQLSSLTSEDSAVYFCARRGLRRPWFAYWGQGTLVTVSA
VL: DIVLTQSPASLAVSLGQRATISCRASKSVSTSGYSYMHWFQQKPGQPPKLLIYLASNLESGVPARFSGSGSGTDFTLNIHPVEEEDAATYYCQHSRELPLTFGAGTKLELK
notes: Mouse anti-PilA monoclonal antibody; The isotype appears only as 'optionally an IgG2A' in an embodiment; It was biotinylated when used as detection antibody in the sandwich ELISA; also called mAb PEPilA/3; PilA mAb
B1: binds.
